Read-outs that look alike come from different tables or passages of the source. Numbered stars: 1 amine (or outer) side, 2 acyl side, 3 side chain; on linkers, the order of the positions; unused ones are H or OH. Bridge positions count the residues as written; N and C are the ends. Square brackets hold non-standard residues; d marks the D form. * marks the point of attachment. Ser(Bzl) = O-benzyl-serine, O=C([C@H](COCc1ccccc1)N[*:1])[*:2]; Nle = CCCC[C@H](N)C(=O)O; Orn = NCCC[C@H](N)C(=O)O; Dab = NCC[C@H](N)C(=O)O; Bn = c1ccc(C*)cc1
Assays:
[1] = target: T1, human melanocortin-4 receptor (recombinant hMC4-R) (human, UniProt P32245 1-332); experiment: cell-based or functional assay
T1 sequence (P32245 whole entry): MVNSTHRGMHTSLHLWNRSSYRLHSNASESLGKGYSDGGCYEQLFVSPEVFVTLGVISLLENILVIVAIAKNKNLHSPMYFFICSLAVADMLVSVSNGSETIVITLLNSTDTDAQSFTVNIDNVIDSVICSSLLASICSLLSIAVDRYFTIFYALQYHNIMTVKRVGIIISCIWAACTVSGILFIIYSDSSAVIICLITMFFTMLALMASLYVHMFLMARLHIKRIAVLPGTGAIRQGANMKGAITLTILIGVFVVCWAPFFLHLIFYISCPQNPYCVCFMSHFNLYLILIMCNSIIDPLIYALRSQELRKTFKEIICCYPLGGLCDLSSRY

[2] = target: T1, human melanocortin-4 receptor …; experiment: competition with labelled NDP-α-MSH ([I125] or Eu), hMC4-R HEK-293 membranes
Description: (§1) After incubation for 60 minutes at 37° C., the assay mixture was filtered and the membranes washed three times with ice-cold buffer. Filters were dried and counted in a gamma counter for bound radioactivity. […] Maximal specific binding (100%) was defined as the difference in radioactivity (cpm) bound to cell membranes in the absence and presence of 1 μM NDP-α-MSH. […] Ki values for test peptides of the present invention were determined using Graph-Pad Prism® curve-fitting software.
(§2) After incubation for 90 minutes at 37° C., the reaction was stopped by filtration over AcroWell 96-well filter plates (Pall Life Sciences). The filter plates were washed 4 times with 200 μL of ice-cold phosphate-buffered saline. DELFIA Enhancement solution (PerkinElmer Life Sciences) was added to each well. The plates were incubated on a shaker for 15 minutes and read at 340 nm excitation and 615 nm emission wavelengths. Each assay was conducted in duplicate and mean values were utilized. Ki values were determined by curve-fitting with Graph-Pad Prism® software using a one-site fixed-slope competition binding model.

[3] = target: T1, human melanocortin-4 receptor …; experiment: cell-based or functional assay; remark: listed apart in the source
[4] = target: T1, human melanocortin-4 receptor …; experiment: competition with labelled NDP-α-MSH ([I125] or Eu), hMC4-R HEK-293 membranes; remark: listed apart in the source
Description: as §1, §2

Row | Ec50 (nM), cAMP [1] [nM] | Emax (%), cAMP [1] [%] | Ki [2] [nM] | Ec50 (nM), cAMP [3] [nM] | Emax (%), cAMP [3] [%] | Ki [4] [nM] | Binder
1 | 0.2 | 103 | 4 |  |  |  | Ac-[dR][Orn]H[dF]RWE-NH2 (lactam 2-7) [Peptide No. 39: Ac-D-Arg-cyclo(Orn-His-D-Phe-Arg-Trp-Glu)-NH2]
2 | 5 | 85 | 9 |  |  |  | Ac-KDH[dF]RWK-NH2 (lactam 2-7; SMILES CC(=O)N[C@@H](CCCCN)C(=O)N[C@H]1CC(=O)NCCCC[C@@H](C(N)=O)NC(=O)[C@H](Cc2c[nH]c3ccccc23)NC(=O)[C@H](CCCNC(=N)N)NC(=O)[C@@H](Cc2ccccc2)NC(=O)[C@H](Cc2c[nH]cn2)NC1=O, also called Peptide Structure (Asp...Lys) in the row of No. 40) [Asp...Lys analog of peptide No. 40: Ac-Lys-cyclo(Asp-His-D-Phe-Arg-Trp-Lys)-NH2]
3 | 9 | 43 | 17 |  |  |  | Ac-RDP[dF]RWK-NH2 (lactam 2-7, also called Peptide Structure (Asp...Lys) in the row of No. 47) [Asp...Lys analog of peptide No. 47: Ac-Arg-cyclo(Asp-Pro-D-Phe-Arg-Trp-Lys)-NH2]
4 |  | 89 | 45 |  |  |  | Ac-[dR]DQ[dF]RWK-NH2 (lactam 2-7, also called Peptide Structure (Asp...Lys) in the row of No. 45) [Asp...Lys analog of peptide No. 45: Ac-D-Arg-cyclo(Asp-Gln-D-Phe-Arg-Trp-Lys)-NH2]
5 | 5 | 38 | 9 | 5 | 38 | 9 | Ac-RD[Ser(Bzl)][dF]RWK-OH (lactam 2-7, also called Peptide Structure (Asp...Lys) in the rows of No. 17 and No. 48) [Asp...Lys analog of peptides No. 17 and No. 48: Ac-Arg-cyclo(Asp-Ser(Bzl)-D-Phe-Arg-Trp-Lys)-OH]
6 | 37 | 74 | 19 |  |  |  | Ac-RDA[dF]RWK-NH2 (lactam 2-7, also called Peptide Structure (Asp...Lys) in the row of No. 41) [Asp...Lys analog of peptide No. 41: Ac-Arg-cyclo(Asp-Ala-D-Phe-Arg-Trp-Lys)-NH2]
7 | 42 | 91 | 32 | 42 | 91 | 32 | Ac-RDN[dF]RWK-NH2 (lactam 2-7; SMILES CC(=O)N[C@@H](CCCNC(=N)N)C(=O)N[C@H]1CC(=O)NCCCC[C@@H](C(N)=O)NC(=O)[C@H](Cc2c[nH]c3ccccc23)NC(=O)[C@H](CCCNC(=N)N)NC(=O)[C@@H](Cc2ccccc2)NC(=O)[C@H](CC(N)=O)NC1=O, also called Peptide Structure (Asp...Lys) in the rows of No. 34 and No. 46) [Asp...Lys analog of peptides No. 34 and No. 46: Ac-Arg-cyclo(Asp-Asn-D-Phe-Arg-Trp-Lys)-NH2]
8 | 1 | 84 | 1 |  |  |  | Ac-R[Orn]H[dF]RWE-NH2 (lactam 2-7) [Peptide No. 38: Ac-Arg-cyclo(Orn-His-D-Phe-Arg-Trp-Glu)-NH2]
9 |  |  |  | 3 | 90 | 7 | Ac-RE[Orn](Ac)[dF]RW[Orn]-NH2 (lactam 2-7) [Peptide No. 33: Ac-Arg-cyclo(Glu-Orn(Acetyl)-D-Phe-Arg-Trp-Orn)-NH2]
10 | 0.1 | 103 | 3 |  |  |  | Ac-R[Orn][Dab][dF]RWE-NH2 (lactam 2-7) [Peptide No. 43: Ac-Arg-cyclo(Orn-Dab-D-Phe-Arg-Trp-Glu)-NH2]
11 |  | 97 | 1 |  |  |  | Ac-[Nle][Orn]H[dF]RWE-OH (lactam 2-7) [Peptide No. 35: Ac-Nle-cyclo(Orn-His-D-Phe-Arg-Trp-Glu)-OH]
12 | 0.2 | 85 | 0.2 |  |  |  | Ac-[Nle][Orn]H[dF]RWE-NH2 (lactam 2-7) [Peptide No. 36: Ac-Nle-cyclo(Orn-His-D-Phe-Arg-Trp-Glu)-NH2]
13 | 0.6 | 88 | 12 |  |  |  | Ac-R[Orn]H[dF]RWE-OH (lactam 2-7) [Peptide No. 37: Ac-Arg-cyclo(Orn-His-D-Phe-Arg-Trp-Glu)-OH]
14 | 7 | 52 | 19 |  |  |  | Ac-R[Orn]A[dF]RWE-NH2 (lactam 2-7; SMILES CC(=O)N[C@@H](CCCNC(=N)N)C(=O)N[C@H]1CCCNC(=O)CC[C@@H](C(N)=O)NC(=O)[C@H](Cc2c[nH]c3ccccc23)NC(=O)[C@H](CCCNC(=N)N)NC(=O)[C@@H](Cc2ccccc2)NC(=O)[C@H](C)NC1=O) [Peptide No. 41: Ac-Arg-cyclo(Orn-Ala-D-Phe-Arg-Trp-Glu)-NH2]
15 | 6 | 54 | 5 |  |  |  | Ac-R[Orn]P[dF]RWE-NH2 (lactam 2-7) [Peptide No. 47: Ac-Arg-cyclo(Orn-Pro-D-Phe-Arg-Trp-Glu)-NH2]
16 | 3 | 50 | 5 |  |  |  | Ac-R[Orn]S(Bn)[dF]RWE-OH (lactam 2-7) [Peptide No. 48: Ac-Arg-cyclo(Orn-Ser(Bzl)-D-Phe-Arg-Trp-Glu)-OH]
17 | 0.2 | 114 | 3 |  |  |  | Ac-K[Orn]H[dF]RWE-NH2 (lactam 2-7) [Peptide No. 40: Ac-Lys-cyclo(Orn-His-D-Phe-Arg-Trp-Glu)-NH2]
18 |  |  |  | 26 | 49 | 74 | Ac-EQ[dF]RW[Orn]-NH2 (lactam 1-6; SMILES CC(=O)N[C@H]1CCC(=O)NCCC[C@@H](C(N)=O)NC(=O)[C@H](Cc2c[nH]c3ccccc23)NC(=O)[C@H](CCCNC(=N)N)NC(=O)[C@@H](Cc2ccccc2)NC(=O)[C@H](CCC(N)=O)NC1=O) [Peptide No. 21: Ac-cyclo(Glu-Gln-D-Phe-Arg-Trp-Orn)-NH2]
